Experimental data from FireProtDB (doi:10.1110/ps.9.2.387).

Conditions: Escherichia coli (strain K12), Thermal, DSC, NaCl 100 mM, reversible: yes(>85%)
[1] = pH 5.5, Sodium cacodylate 10 mM

Cold shock protein CspA wild type, P0A9X9, sequence (P0A9X9 whole entry): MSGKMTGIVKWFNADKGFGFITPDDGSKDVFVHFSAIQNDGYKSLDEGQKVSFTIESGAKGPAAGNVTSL

Cold shock protein CspA wild type, P0A9X9
Tm (pH 4, Sodium acetate 10 mM): 33.2 °C
unfolding enthalpy (calorimetric) (pH 4, Sodium acetate 10 mM): 22.7 kcal/mol
Tm (pH 4.5, Sodium acetate 10 mM): 42.1 °C
unfolding enthalpy (calorimetric) (pH 4.5, Sodium acetate 10 mM): 28.9 kcal/mol
Tm (pH 5, Sodium acetate 10 mM): 47.7 °C
unfolding enthalpy (calorimetric) (pH 5, Sodium acetate 10 mM): 33 kcal/mol
Tm [1]: 54.4 °C
unfolding enthalpy (calorimetric) [1]: 39.9 kcal/mol
Tm (pH 6, MOPS 10 mM): 54.1 °C
unfolding enthalpy (calorimetric) (pH 6, MOPS 10 mM): 39.9 kcal/mol
Tm (pH 6, PIPES 10 mM): 53.1 °C
unfolding enthalpy (calorimetric) (pH 6, PIPES 10 mM): 36.1 kcal/mol
Tm (pH 6, Sodium cacodylate 10 mM): 56.5 °C
unfolding enthalpy (calorimetric) (pH 6, Sodium cacodylate 10 mM): 44.9 kcal/mol
Tm (pH 6, Sodium phosphate 10 mM): 55.9 °C
unfolding enthalpy (calorimetric) (pH 6, Sodium phosphate 10 mM): 39.4 kcal/mol
Tm (pH 6.5, HEPES 10 mM): 56.5 °C
unfolding enthalpy (calorimetric) (pH 6.5, HEPES 10 mM): 43.5 kcal/mol
Tm (pH 6.5, MOPS 10 mM): 56.1 °C
unfolding enthalpy (calorimetric) (pH 6.5, MOPS 10 mM): 39.9 kcal/mol
Tm (pH 6.5, PIPES 10 mM): 55.2 °C
unfolding enthalpy (calorimetric) (pH 6.5, PIPES 10 mM): 41.4 kcal/mol
Tm (pH 6.5, Sodium citrate 10 mM): 56.8 °C
unfolding enthalpy (calorimetric) (pH 6.5, Sodium citrate 10 mM): 45.2 kcal/mol
Tm (pH 6.5, Sodium phosphate 10 mM): 56.1 °C
unfolding enthalpy (calorimetric) (pH 6.5, Sodium phosphate 10 mM): 43.3 kcal/mol
Tm (pH 6.5, imidazole 10 mM): 53.7 °C
unfolding enthalpy (calorimetric) (pH 6.5, imidazole 10 mM): 39.2 kcal/mol
Tm (pH 7, HEPES 10 mM): 57.6 °C
unfolding enthalpy (calorimetric) (pH 7, HEPES 10 mM): 47.6 kcal/mol
Tm (pH 7, MOPS 10 mM): 56.4 °C
unfolding enthalpy (calorimetric) (pH 7, MOPS 10 mM): 40.6 kcal/mol
Tm (pH 7, PIPES 10 mM): 55.7 °C
unfolding enthalpy (calorimetric) (pH 7, PIPES 10 mM): 41.4 kcal/mol
Tm (pH 7, Sodium cacodylate 10 mM): 57 °C
unfolding enthalpy (calorimetric) (pH 7, Sodium cacodylate 10 mM): 47.3 kcal/mol
Tm (pH 7, Sodium citrate 10 mM): 57 °C
unfolding enthalpy (calorimetric) (pH 7, Sodium citrate 10 mM): 46.4 kcal/mol
Tm (pH 7, Sodium phosphate 10 mM): 57 °C
unfolding enthalpy (calorimetric) (pH 7, Sodium phosphate 10 mM): 43.3 kcal/mol
Tm (pH 7, imidazole 10 mM): 55.8 °C
unfolding enthalpy (calorimetric) (pH 7, imidazole 10 mM): 40.1 kcal/mol
Tm (pH 7.5, HEPES 10 mM): 57.8 °C
unfolding enthalpy (calorimetric) (pH 7.5, HEPES 10 mM): 49 kcal/mol
Tm (pH 7.5, MOPS 10 mM): 56.2 °C
unfolding enthalpy (calorimetric) (pH 7.5, MOPS 10 mM): 41.4 kcal/mol
Tm (pH 7.5, PIPES 10 mM): 56 °C
unfolding enthalpy (calorimetric) (pH 7.5, PIPES 10 mM): 42.3 kcal/mol
Tm (pH 7.5, Sodium citrate 10 mM): 57.3 °C
unfolding enthalpy (calorimetric) (pH 7.5, Sodium citrate 10 mM): 48.3 kcal/mol
Tm (pH 7.5, Sodium phosphate 10 mM): 57.1 °C
unfolding enthalpy (calorimetric) (pH 7.5, Sodium phosphate 10 mM): 46.9 kcal/mol
Tm (pH 7.5, imidazole 10 mM): 55.9 °C
unfolding enthalpy (calorimetric) (pH 7.5, imidazole 10 mM): 39 kcal/mol
Tm (pH 8, MOPS 10 mM): 57.1 °C
unfolding enthalpy (calorimetric) (pH 8, MOPS 10 mM): 42.5 kcal/mol
Tm (pH 8, imidazole 10 mM): 56.8 °C
unfolding enthalpy (calorimetric) (pH 8, imidazole 10 mM): 38.2 kcal/mol
Tm (pH 8.5, HEPES 10 mM): 56.5 °C
unfolding enthalpy (calorimetric) (pH 8.5, HEPES 10 mM): 42.1 kcal/mol
Tm (pH 8.5, Sodium borate 10 mM): 57.7 °C
unfolding enthalpy (calorimetric) (pH 8.5, Sodium borate 10 mM): 44.5 kcal/mol
Tm (pH 8.7, Sodium borate 10 mM): 57.6 °C
unfolding enthalpy (calorimetric) (pH 8.7, Sodium borate 10 mM): 43.7 kcal/mol
